Source: patent US6607880

Molecular target: T1, 35S-labelled transcription-translation product of p28 Bap31 cDNA
T1 chain: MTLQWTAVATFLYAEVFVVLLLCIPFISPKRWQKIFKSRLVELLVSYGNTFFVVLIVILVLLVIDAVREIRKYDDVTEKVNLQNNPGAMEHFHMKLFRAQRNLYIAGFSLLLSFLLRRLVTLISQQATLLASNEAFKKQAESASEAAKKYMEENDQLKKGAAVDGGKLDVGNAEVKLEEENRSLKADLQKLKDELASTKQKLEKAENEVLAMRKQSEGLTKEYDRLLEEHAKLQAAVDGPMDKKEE

Row | Protein | amount of p20 cleavage product (Phosphorimager) | cleavage of 35S-labelled p28 Bap31 in vitro (SDS-PAGE)
1 | FLICE (caspase-8) (protein) SESQTLDKVYQMKSKPRGYCLIINNHNFAKAREKVPKLHSIRDRNGTHLDAGALTTTFEELHFEIKPHDDCTVEQIYEILKIYQLMDHSNMDCFICCILSHGDKGIIYGTDGQEAPIYELTSQFTGLKCPSLAGKPKVFFIQACQGDNYQKGIPVETDSEEQPYLEMDLSSPQTRYIPDEADFLLGMATVNNCVSYRNPAEGTWYIQSLCQSLRERCPRGDDILTILTEVNYEVSNKDDKKNMGKQMPQPTFTLRKKLVFPSD | p28 Bap31 was more sensitive to cleavage by FLICE (caspase-8) than ICE (caspase-1) | –
2 | ICE (caspase-1) (protein) NPAMPTSSGSEGNVKLCSLEEAQRIWKQKSAEIYPIMDKSSRTRLALIICNEEFDSIPRRTGAEVDITGMTMLLQNLGYSVDVKKNLTASDMTTELEAFAHRPEHKTSDSTFLVFMSHGIREGICGKKHSEQVPDILQLNAIFNMLNTKNCPSLKDKPKVIIIQACRGDSPGVVWFKDSVGVSGNLSLPTTEEFEDDAIKKAHIEKDFIAFCSSTPDNVSWRHPTMGSVFIGRLIEHMQEYACSCDVEEIFRKVRFSFEQPDGRAQMPTTERVTLTRCFYLFPGH | – | ICE (caspase-1), on the other hand, generated two products (denoted “a” and “b”) whose apparent sizes in SDS gels (approximately 27 kDA and 20 kDa, respectively)
